Experimental data taken from doi:10.1101/203372 (bioRxiv, 2017).

Legend:
[1] = target: Ubiquitin, human, recombinant (tag-free mono-Ub) (human, UniProt P0CG48 1-76); experiment: MST
[2] = target: Ubiquitin, human, recombinant, His-tag (His6-Ub) (human, UniProt P0CG48 1-76); experiment: MST

B1: HDAC6-EGFP WT (full-length human histone deacetylase 6 fused to EGFP) (enzyme)
chain: MTSTGQDSTTTRQRRSRQNPQSPPQDSSVTSKRNIKKGAVPRSIPNLAEVKKKGKMKKLGQAMEEDLIVGLQGMDLNLEAEALAGTGLVLDEQLNEFHCLWDDSFPEGPERLHAIKEQLIQEGLLDRCVSFQARFAEKEELMLVHSLEYIDLMETTQYMNEGELRVLADTYDSVYLHPNSYSCACLASGSVLRLVDAVLGAEIRNGMAIIRPPGHHAQHSLMDGYCMFNHVAVAARYAQQKHRIRRVLIVDWDVHHGQGTQFTFDQDPSVLYFSIHRYEQGRFWPHLKASNWSTTGFGQGQGYTINVPWNQVGMRDADYIAAFLHVLLPVALEFQPQLVLVAAGFDALQGDPKGEMAATPAGFAQLTHLLMGLAGGKLILSLEGGYNLRALAEGVSASLHTLLGDPCPMLESPGAPCRSAQASVSCALEALEPFWEVLVRSTETVERDNMEEDNVEESEEEGPWEPPVLPILTWPVLQSRTGLVYDQNMMNHCNLWDSHHPEVPQRILRIMCRLEELGLAGRCLTLTPRPATEAELLTCHSAEYVGHLRATEKMKTRELHRESSNFDSIYICPSTFACAQLATGAACRLVEAVLSGEVLNGAAVVRPPGHHAEQDAACGFCFFNSVAVAARHAQTISGHALRILIVDWDVHHGNGTQHMFEDDPSVLYVSLHRYDHGTFFPMGDEGASSQIGRAAGTGFTVNVAWNGPRMGDADYLAAWHRLVLPIAYEFNPELVLVSAGFDAARGDPLGGCQVSPEGYAHLTHLLMGLASGRIILILEGGYNLTSISESMAACTRSLLGDPPPLLTLPRPPLSGALASITETIQVHRRYWRSLRVMKVEDREGPSSSKLVTKKAPQPAKPRLAERMTTREKKVLEAGMGKVTSASFGEESTPGQTNSETAVVALTQDQPSEAATGGATLAQTISEAAIGGAMLGQTTSEEAVGGATPDQTTSEETVGGAILDQTTSEDAVGGATLGQTTSEEAVGGATLAQTTSEAAMEGATLDQTTSEEAPGGTELIQTPLASSTDHQTPPTSPVQGTTPQISPSTLIGSLRTLELGSESQGASESQAPGEENLLGEAAGGQDMADSMLMQGSRGLTDQAIFYAVTPLPWCPHLVAVCPIPAAGLDVTQPCGDCGTIQENWVCLSCYQVYCGRYINGHMLQHHGNSGHPLVLSYIDLSAWCYYCQAYVHHQALLDVKNIAHQNKFGEDMPHPH
Kd [1]: 1.25 ± 0.147 µM | Kd [2]: 0.069 µM
